Source: patent US20250170263A1 (AbbVie / Abbott, published 2025)

B1: AM2-AAA ADC (antibody, human IgG1, kappa, L234A L235A, DAR 2, V domains shown)
VH: EVQLQESGPGLVKPSQTLSLTCTVSGYSISNDFAWNWIRQPPGKGLEWMGYISYKGNTRYQPSLKSRITISRDTSKNQFFLKLNSVTAADTATYYCVTASRGFPWWGQGTLVTVSS
VL: DIQMTQSPSSMSVSVGDRVTITCHSSQDINSNIGWLQQKPGKSFKGLIYHGTNLDDGVPSRFSGSGSGTDYTLTISSLQPEDFATYYCVQYAQFPWTFGGGTKLEIKR
modifications: AAA synthon (Bcl-xL inhibitor drug-linker) conjugated through C220 of the heavy chain (i.e., C219 of SEQ ID NO: 1); average DAR 2
notes: Antibody-drug conjugate: the AM2 antibody conjugated to the AAA synthon, average DAR 2; The conjugation site (C220) is stated only in the summary and embodiments
B2: AM2 antibody (antibody, human IgG1, kappa, L234A L235A, V domains shown)
VH: EVQLQESGPGLVKPSQTLSLTCTVSGYSISNDFAWNWIRQPPGKGLEWMGYISYKGNTRYQPSLKSRITISRDTSKNQFFLKLNSVTAADTATYYCVTASRGFPWWGQGTLVTVSS
VL: DIQMTQSPSSMSVSVGDRVTITCHSSQDINSNIGWLQQKPGKSFKGLIYHGTNLDDGVPSRFSGSGSGTDYTLTISSLQPEDFATYYCVQYAQFPWTFGGGTKLEIKR
notes: Humanized IgG1, z,a allotype, with the LALA mutation (L234A, L235A) and LC:C214A (C6v1); Expressed in HEK293 cells; also called EGFR AM2 antibody

Tests used:
[1] = target: T1, wt EGFR overexpressed on the surface of A431 (A-431, human epidermoid carcinoma) cells (human, UniProt P00533 25-1210); assay: cell-based or functional assay
[2] = target: T1, wt EGFR overexpressed on the surface of …; assay: cell-based or functional assay; remark: listed apart in the source
[3] = target: mutEGFR on NCI-H1650 (non-small cell lung cancer) cells (human); assay: cell-based or functional assay
[4] = target: T2, wild-type EGFR extra-cellular domain (ECD), EGFR (1-645)-LESRGPF-Myc-NMHTG-6His (human, UniProt P00533 25-645); assay: SPR, Biacore T200, ADC captured by anti-Fc, EGFR ECD as analyte
T2 construct: Recombinant soluble ECD secreted from HEK293 cells; also called hEGFR WT; EGFR(h)(1-645); not shown: Myc tag
Method: (§1) Binding kinetics for AM2 and AM2-AAA for recombinant soluble EGFR extracellular domains (ECDs) were determined by surface plasmon resonance-based measurements made on a Biacore T200 instrument (GE Healthcare) at 25° C. using an anti-Fc capture assay approach. Recombinant soluble ECDs for the three isoforms of EGFR were expressed from transiently transfected HEK293 cells as secreted proteins with a C-terminal myc and histidine tag, and purified by Ni-IMAC (immobilized metal affinity chromatography) and SEC. […]
(§2) Chip preparation and binding kinetic measurements were made in the assay buffer HBS-EP+ (10 mM Hepes, pH 7.4, 150 mM NaCl, 3 mM EDTA, 0.05% Tween 20). […] For binding kinetics measurements each assay cycle consisted of the following steps: (1) capture of test antibody on test surface only; (2) analyte injection (EGFR ECD or buffer only) over both reference and test surface (240 μL at 80 μl/min), after which the dissociation was monitored for 900 seconds at 80 μl/min; (3) regeneration of the capture surface by 10 mM Glycine-HCl, pH 1.5 injections over both reference and test surface. […]

[5] = target: T3, EGFRvIII (hEGFR de2-7) [EGFR(H)(1-29)-G-(298-645)], EGFR(h)(1-29)-G-(298-645)-LESRGPF-Myc-NMHTG-6His (human, UniProt P00533 298-645); assay: SPR, Biacore T200, 25 C, anti-Fc capture of ADC, EGFR ECD as analyte, 1:1 model
T3 construct: Recombinant soluble ECD secreted from HEK293 cells; not shown: Myc tag
Method: (§3) Binding kinetics for AM2 and AM2-AAA for recombinant soluble EGFR extracellular domains (ECDs) were determined by surface plasmon resonance-based measurements made on a Biacore T200 instrument (GE Healthcare) at 25° C. using an anti-Fc capture assay approach. Recombinant soluble ECDs for the three isoforms of EGFR were expressed from transiently transfected HEK293 cells as secreted proteins with a C-terminal myc and histidine tag, and purified by Ni-IMAC (immobilized metal affinity chromatography) and SEC. In particular, the EGFR ECD tested included amino acids 1-645 of EGFR fused to a myc and histidine tag [(EGFR (1-645)-LESRGPF-Myc-NMHTG-6His (“LESRGPF” (SEQ ID NO: 27))]. The EGFRvIII variant was also fused to a myc and histidine tag (EGFR(h)(1-29)-G-(298-645)-LESRGPF-Myc-NMHTG-6His), as was the ECD EGFR 1-525 [EGFR1(h)(1-525)]-LESRGPF-Myc-NMHTG-6His (“LESRGPF” (SEQ ID NO: 28))]. All ECDs were expressed with the signal sequence […] which was cleaved during secretion.
(§4) Chip preparation and binding kinetic measurements were made in the assay buffer HBS-EP+ (10 mM Hepes, pH 7.4, 150 mM NaCl, 3 mM EDTA, 0.05% Tween 20). For anti-Fc capture chip preparation, approximately 2000 RU of goat anti-human IgG Fc polyclonal antibody (Thermo Fisher Scientific Inc., cat. 31125), diluted to 25 μg/mL in 10 mM sodium acetate (pH 4.5) was directly immobilized across a CM5 biosensor chip using a standard amine coupling kit according to manufacturer's instructions and procedures (GE Healthcare). Unreacted moieties on the biosensor surface were blocked with ethanolamine. For binding kinetics measurements each assay cycle consisted of the following steps: (1) capture of test antibody on test surface only; (2) analyte injection (EGFR ECD or buffer only) over both reference and test surface (240 μL at 80 μl/min), after which the dissociation was monitored for 900 seconds at 80 μl/min; (3) regeneration of the capture surface by 10 mM Glycine-HCl, pH 1.5 injections over both reference and test surface.
(§5) For kinetic determinations, analytes were randomized 3-fold dilution series from 3 uM top dose. During the assay, all measurements were referenced against the capture surface alone (i.e., with no captured test antibody) and buffer-only injections were used for secondary referencing.

[6] = target: T4, truncated wild-type EGFR 1-525, [EGFR1(h)(1-525)]-LESRGPF-Myc-NMHTG-6His (human, UniProt P00533 25-525); assay: as above
T4 construct: Recombinant soluble truncated ECD secreted from HEK293 cells; also called EGFRs1-501; ECD EGFR 1-525; not shown: Myc tag
Method: as §3, §4, §5

[7] = target: T1, wt EGFR overexpressed on the surface of …; assay: FACS on A-431 cells, 1 h at 4 C, AlexaFluor 488 secondary antibody, geometric mean fluorescence
Method: To assay binding of AM2-AAA to cell surface overexpressed wt EGFR and to mutant forms of EGFR including the activating mutations found in NSCLC (mutEGFR), tumor cells overexpressing wt EGFR (A431) and mutEGFR (NCI-H1650) were assessed by fluorescence activated cell sorting (FACS).
Cells were harvested from flasks when at approximately 1.5×10⁶ cells/mL. Cells were washed once in PBS/1% FBS (FACS buffer) then resuspended at 2.5×10⁶ cells/mL in FACS buffer. 50 μL of cells were added to a round bottom 96-well plate. 50 μL of a 2× concentration of mAb/ADC (final concentrations are indicated in the figures) was added to wells and the plate was incubated at 4° C. for one hour. The cells were washed twice in FACS buffer and resuspended in 50 μL of a 1:100 dilution of secondary Ab (AlexaFluor 488, Invitrogen, 11013) diluted in FACS buffer. The plate was incubated at 4° C. for one hour and washed twice with FACS buffer. Cells were resuspended in 100 μL of PBS/1% formaldehyde and analyzed on a Becton Dickinson FACSCanto II flow cytometer. Data was analyzed using WinList flow cytometry analysis software.

[8] = target: T2, wild-type EGFR extra-cellular domain …; assay: SPR, Biacore T200, antibody captured by anti-Fc, EGFR ECD as analyte
Method: as §1, §2

[9] = target: T3, EGFRvIII (hEGFR de2-7) …; assay: SPR, Biacore T200, 25 C, anti-Fc capture of antibody, EGFR ECD as analyte, 1:1 model
Method: as §3, §4, §5

[10] = target: T4, truncated wild-type EGFR 1-525, …; assay: as above
Method: as §3, §4, §5

Binder | IC50 (read off the curve), % Bim bound to BCL-xl in A-431 cells [1] [nM] | EC50 (read off the curve), caspase 3/7 activity fold change in A431 cells [2] [nM] | IC50 (read off the curve), % Bim bound to BCL-xl in NCI-H1650 cells [3] [nM] | binding result [4] | Kd [5] [nM] | koff [5] [s⁻¹] | kon [5] [M⁻¹ s⁻¹] | Kd [6] [nM] | koff [6] [s⁻¹] | kon [6] [M⁻¹ s⁻¹] | EC50 (read off the curve) [7] [nM] | binding result [8] | Kd [9] [nM] | koff [9] [s⁻¹] | kon [9] [M⁻¹ s⁻¹] | Kd [10] [nM] | koff [10] [s⁻¹] | kon [10] [M⁻¹ s⁻¹]
B1 | ~3 | ~7 | ~20 | no binding (tested: 3 µM top dose) | 4.9 | 0.00017 | 35000 | 400 | 0.0012 | 2900 | ~100 |  |  |  |  |  |  | 
B2 |  |  |  |  |  |  |  |  |  |  | ~80 | no binding (tested: 3 µM top dose) | 5 | 0.00017 | 33000 | 420 | 0.0012 | 2800
